Experimental data reported in patent US20170368208A1, “CANCER IMAGING AGENT” (ENDOCYTE, INC., priority 2015, published 2017).
*1 amine or outer side, *2 acyl side, *3 side chain or, on linkers, in order; H or OH if unused. Where a SMILES comes first, the peptide text is derived from it. Side-chain parts run from the residue outwards. [ ]: non-standard residue; d: D form. ξ: configuration not given here. γGlu = O=C(O)[C@H](CCC(=O)[*:2])N[*:1]; ξE = NC(CCC(=O)O)C(=O)O; Dap = NC[C@H](N)C(=O)O; Aoc = NCCCCCCCC(=O)O; CO = O=C([*:1])[*:2]

Assay: Radiochemical purity and stability of 99mTc-Compound II after room temperature labelling of kit formulations (radio-HPLC)
Type: physicochemical
Conditions: 0.1 mg tin chloride
Method: A Compound II kit vial from Example 2 was removed from the refrigerator and allowed to warm to room temperature (17-27° C.) for 15-30 min. The vial was put into a suitable radioactive shielding container. One to Two milliliter (≦50 mCi) of ^99mTc pertechnetate injection was added to the vial using a lead shielded syringe. Before removing the syringe from the vial, equal volume of headspace was withdrawn in order to normalize the pressure inside the vial. The vial was gently swirled to completely dissolve the powder and then allowed to stand at ambient temperature (17-27° C.) for 15 minutes. 5-6 mL of 0.9% sodium chloride injection, USP, was then added to the vial. The labeled solution was stored at room temperature (17-27° C.) and used within 6 hours of preparation. The Radio-HPLC system used for the following experiment consisted of a Waters 600 intelligent pump, a Bioscan Flow-Count radiodetector, and a Waters Nova-Pak C18 (3.9×150 mm) column, using Laura v1.5 radiochromatogram software. 1-5 μL of the ^99mTc-Compound II sample was injected into the HPLC and eluted with an aqueous mobile phase 0.1% trifluoroacetic acid in water (A) and Acetonitrile (B) at a linear gradient of 25% B to 35% B over 20 minutes at a flow rate of 1 mL/min. […] The radiochemical purity of ^99mTc-Compound II was calculated as follows: Radiochemical purity=isomer A %+isomer B % (FIG. 1) Using the methods described herein, Compound II was subjected to room temperature labelling at varying pH. Using the methods described herein, Compound II was subjected to room temperature labelling with varying amounts of EDTA. Using the methods described herein, Compound II was subjected to room temperature labelling with varying amounts of sodium gluconate.

## N[C@@H](CNC(=O)[C@H](Cc1ccccc1)NC(=O)[C@H](Cc1ccccc1)NC(=O)CCCCCCCNC(=O)CC[C@H](NC(=O)NC(CCC(=O)O)C(=O)O)C(=O)O)C(=O)N[C@@H](CC(=O)O)C(=O)N[C@@H](CS)C(=O)O (stereo partly drawn) [EC0652] (H-[Dap]([Phe-Phe-Aoc-γGlu-CO-ξE])-Asp-Cys-OH)
Kit 0.1 mg EC0652, 1 mg sodium gluconate, 0.3 mg EDTA, pH 6.8, 6 Hr
  RCP (%) Time (6 Hr): 91.7%
Kit 0.1 mg EC0652, 20 mg sodium gluconate, 0.3 mg EDTA, pH 6.8, 6 Hr
  RCP (%) Time (6 Hr): 97.9%
Kit 0.1 mg EC0652, 25 mg sodium gluconate, 0 mg EDTA, pH 6.8, 0 Hr
  RCP (%) Time (0 Hr): 85.37%
Kit 0.1 mg EC0652, 25 mg sodium gluconate, 0 mg EDTA, pH 6.8, 6 Hr
  RCP (%) Time (6 Hr): 88.06%
Kit 0.1 mg EC0652, 25 mg sodium gluconate, 0.005 mg EDTA, pH 6.8, 0 Hr
  RCP (%) Time (0 Hr): 83.69%
Kit 0.1 mg EC0652, 25 mg sodium gluconate, 0.005 mg EDTA, pH 6.8, 6 Hr
  RCP (%) Time (6 Hr): 74.46%
Kit 0.1 mg EC0652, 25 mg sodium gluconate, 0.01 mg EDTA, pH 6.8, 0 Hr
  RCP (%) Time (0 Hr): 85.92%
Kit 0.1 mg EC0652, 25 mg sodium gluconate, 0.01 mg EDTA, pH 6.8, 6 Hr
  RCP (%) Time (6 Hr): 94.03%
Kit 0.1 mg EC0652, 25 mg sodium gluconate, 0.1 mg EDTA, pH 6.8, 0 Hr
  RCP (%) Time (0 Hr): 95.77%
Kit 0.1 mg EC0652, 25 mg sodium gluconate, 0.1 mg EDTA, pH 6.8, 6 Hr
  RCP (%) Time (6 Hr): 95.33%
Kit 0.1 mg EC0652, 25 mg sodium gluconate, 0.30 mg EDTA, pH 6.8, 0 Hr (Table 5)
  RCP (%) Time (0 Hr): 97.02%
Kit 0.1 mg EC0652, 25 mg sodium gluconate, 0.30 mg EDTA, pH 6.8, 6 Hr (Table 5)
  RCP (%) Time (6 Hr): 97.49%
Kit 0.1 mg EC0652, 25 mg sodium gluconate, 0.3 mg EDTA, pH 6.8, 6 Hr (Table 6)
  RCP (%) Time (6 Hr): 98.5%
Kit 0.1 mg EC0652, 25 mg sodium gluconate, 0.3 mg EDTA, pH 5.1, 0 Hr after room temperature 99mTc labelling
  Radiochemical Purity (%) Time (0 Hr): 97.7%
Kit 0.1 mg EC0652, 25 mg sodium gluconate, 0.3 mg EDTA, pH 5.1, 6 Hr after room temperature 99mTc labelling
  Radiochemical Purity (%) Time (6 Hr): 85.5%
Kit 0.1 mg EC0652, 25 mg sodium gluconate, 0.3 mg EDTA, pH 6.2, 0 Hr
  Radiochemical Purity (%) Time (0 Hr): 96.8%
Kit 0.1 mg EC0652, 25 mg sodium gluconate, 0.3 mg EDTA, pH 6.2, 6 Hr
  Radiochemical Purity (%) Time (6 Hr): 94.1%
Kit 0.1 mg EC0652, 25 mg sodium gluconate, 0.3 mg EDTA, pH 6.8, 0 Hr (Table 3)
  Radiochemical Purity (%) Time (0 Hr): 97.4%
Kit 0.1 mg EC0652, 25 mg sodium gluconate, 0.3 mg EDTA, pH 6.8, 6 Hr (Table 3)
  Radiochemical Purity (%) Time (6 Hr): 94.8%
Kit 0.1 mg EC0652, 25 mg sodium gluconate, 0.3 mg EDTA, pH 7.4, 0 Hr
  Radiochemical Purity (%) Time (0 Hr): 96.5%
Kit 0.1 mg EC0652, 25 mg sodium gluconate, 0.3 mg EDTA, pH 7.4, 6 Hr
  Radiochemical Purity (%) Time (6 Hr): 96.0%
Kit 0.1 mg EC0652, 25 mg sodium gluconate, 1.0 mg EDTA, pH 6.8, 0 Hr
  RCP (%) Time (0 Hr): 96.69%
Kit 0.1 mg EC0652, 25 mg sodium gluconate, 1.0 mg EDTA, pH 6.8, 6 Hr
  RCP (%) Time (6 Hr): 96.87%
Kit 0.1 mg EC0652, 30 mg sodium gluconate, 0.3 mg EDTA, pH 6.8, 6 Hr
  RCP (%) Time (6 Hr): 97.0%
Kit 0.1 mg EC0652, 50 mg sodium gluconate, 0.3 mg EDTA, pH 6.8, 6 Hr
  RCP (%) Time (6 Hr): 98.0%
